Results on 3 molecules are retold here after publication PMC3500696.

Like-named read-outs stand apart in the source and are kept apart here.

For test [1], the target named is porcine CSF-1R expressed in Ba/F3 cells (pig).
Test [2] shares this target. The source holds these as a separate data set.

“bacterially produced porcine CSF-1 (active fragment Ser36-Arg189) (ligand)”: in test [1], the EC50, MTT cell viability assay, Ba/F3 cells expressing porcine CSF-1R is 0.029 µg/mL.
“recombinant human CSF-1 (from UniProt P09603 33-554) (ligand)” registered an EC50, MTT cell viability assay, Ba/F3 cells expressing porcine CSF-1R (compared with bacterially produced porcine CSF-1) in test [1] of 0.034 µg/mL. Moreover, the EC50, MTT cell viability assay, Ba/F3 cells expressing porcine CSF-1R (compared with rhIL-34) in test [2] stood at 0.1 µg/mL.

B1: recombinant human Interleukin 34 (ligand)
chain: NEPLEMWPLTQNEECTVTGFLRDKLQYRSRLQYMKHYFPINYKISVPYEGVFRIANVTRLQRAQVSERELRYLWVLVSLSATESVQDVLLEGHPSWKYLQEVETLLLNVQQGLTDVEVSPKVESVLSLLNAPGPNLKLVRPKALLDNCFRVMELLYCSCCKQSSVLNWQDCEVPSPQSCSPEPSLQYAATQLYPPPPWSPSSPPHSTGSVRPVRAQGEGLLP
B1 showed an EC50, MTT cell viability assay, Ba/F3 cells expressing porcine CSF-1R in test [2] of 0.137 µg/mL.
